What was measured:
Peptide 733-3RE-2 = molecular target: T1, Peptide 733-3RE-2 (Homo sapiens); assay: immunostaining of cells or tissue; pre-blocking test: synthetic peptide pre-incubated with mAb785; binding of the peptide read from the loss of immunostaining of breast cancer sections; settings: both partners purified
T1 construct: residues 42-51 of human mammaglobin-A; also called truncated peptide without PV; source: synthetic peptide
T1 chain: YKELLQEFID

[1] = molecular target: T2, mammaglobin-A (Mam-A) on breast cancer cells and in breast cancer tissue (Homo sapiens, UniProt Q13296); assay: immunostaining of cells or tissue; ZR75.1 cells and tumor slides (GFP in the cytoplasm) fixed with cold methanol/acetone, mAb then AF594-labeled anti-mouse IgG, confocal microscopy; settings: one partner purified
T2 construct: mammaglobin-A, endogenous in human breast cancer cells and tissue; Cells were fixed with cold methanol/acetone before staining; also called membrane-associated Mam-A; source: endogenous, breast cancer cell lines (ZR75.1, MCF-7, SKBR3, MDA-MB-231) and breast cancer tissue sections

[2] = molecular target: T3, human mammaglobin-A (Mam-A) protein, antigen of the ELISA and SPR (Homo sapiens, UniProt Q13296); assay: ELISA; indirect ELISA of the mAbs on Mam-A
T3 construct: mammaglobin-A, human

Measured: binding result

T3 sequence (Q13296 19-93): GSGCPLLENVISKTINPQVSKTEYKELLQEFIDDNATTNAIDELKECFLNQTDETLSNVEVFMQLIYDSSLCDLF
T2 sequence (Q13296 19-93): as above

B1: mAb785 (antibody, V domains shown)
VH: EVKLVESGGGLVKPGGSLKLSCAASGFTLSNHGMSWVRQTSEKRLEWVASISIRGNTYYLDSVEGRFTISRDDARNILYLQMSGLRSEDTAIYYCTYFTSVVWGQGTTLTVSS
VL: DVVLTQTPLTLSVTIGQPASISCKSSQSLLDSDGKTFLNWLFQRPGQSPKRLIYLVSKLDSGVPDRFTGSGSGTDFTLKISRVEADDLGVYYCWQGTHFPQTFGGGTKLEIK
notes: Whole monoclonal antibody raised against human Mam-A; detected with anti-mouse IgG secondary antibodies, so probably a mouse IgG; also called anti-Mam-A mAb785
binds: Peptide 733-3RE-2 | [1] | [2]
